From publication PMC12868882, “Held out wings RNA binding activity in the cytoplasm during early spermatogenesis”

T1: HOW-STAR (STAR domain of Held out wings) (Drosophila melanogaster, UniProt O01367 72-266)
T1 sequence: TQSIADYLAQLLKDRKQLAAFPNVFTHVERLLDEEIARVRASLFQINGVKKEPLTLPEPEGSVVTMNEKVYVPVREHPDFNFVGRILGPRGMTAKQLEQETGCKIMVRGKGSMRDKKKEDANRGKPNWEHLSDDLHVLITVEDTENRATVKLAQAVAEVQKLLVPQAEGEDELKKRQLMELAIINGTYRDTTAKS

B1: Hipk double motif (ssRNA)
RNA: UACAACUAACAACUAACAGAU
B2: Hipk-RA G5A (ssRNA)
RNA: AGCAACUAACAAUU
B3: Hipk-RA G5C (ssRNA)
RNA: AGCACCUAACAAUU
B4: Lola + half-site (ssRNA)
RNA: ACACACUAACUCGUAACUAUG
B5: Hipk-RA A8G (ssRNA)
RNA: AGCAGCUGACAAUU
B6: Hipk-RA (ssRNA)
RNA: AGCAGCUAACAAUU
B7: Lola (ssRNA)
RNA: ACACACUAACUCGU
B8: Hipk-RA G5U (ssRNA)
RNA: AGCAUCUAACAAUU
B9: Jvl (ssRNA)
RNA: GUUGGCGUGUUUU

biological target: T1, HOW-STAR (STAR domain of Held out wings); assay: fluorescence anisotropy; apparent KD; RNA binding buffer: 20 mM Tris-HCl pH 7.5, 150 mM NaCl, 0.01% Triton X-100; 20 uL of 5 nM labelled RNA in about 60 uL; at least 45 min equilibration; temperature not stated; details: protein: recombinant; tags: His6-GST removed by 3C protease; chain copies: 2; label: 3' 6-carboxyfluorescein

Compared with B1, B2 is 1.6-fold lower in Kd: 7.46 nM for the first, 4.65 nM for the second. The second binds more tightly here.

Going from B3 to B4, the Kd falls from 20.4 nM to 9.25 nM (2.2-fold).

Compared with B5, B6 is 8.4-fold lower in Kd: 85.3 nM for the first, 10.1 nM for the second. The second binds more tightly here.

Going from B7 to B8, the Kd rises from 6.05 nM to 12.4 nM (2-fold).

biological target: T1, HOW-STAR (STAR domain of Held out wings); assay: fluorescence anisotropy; apparent KD; text: did not bind in the low nanomolar range; RNA binding buffer: 20 mM Tris-HCl pH 7.5, 150 mM NaCl, 0.01% Triton X-100; 20 uL of 5 nM labelled RNA in about 60 uL; at least 45 min equilibration; temperature not stated; details: protein: recombinant; tags: His6-GST removed by 3C protease; chain copies: 2; label: 3' 6-carboxyfluorescein

B9 gave a Kd of 803 nM.
